Reference: US20220048967A1 (published 2022)
Positions count from the first letter of the chain named. Numbered stars: 1 amine (or outer) side, 2 acyl side, 3 side chain; on linkers, the order of the positions; unused ones are H or OH. Square brackets hold non-standard residues; d marks the D form. Side chains are listed from the residue outwards. Ends that are not written are not given here. * marks the point of attachment. C20 diacid = O=C(O)CCCCCCCCCCCCCCCCCCC(=O)*; γGlu = O=C(O)[C@H](CCC(=O)[*:2])N[*:1]; αMeF = C[C@](N)(Cc1ccccc1)C(=O)O; cTA = not defined here; AEEA = NCCOCCOCC(=O)O; Aib = CC(C)(N)C(=O)O

T1: human gastric inhibitory peptide receptor (GIPR) (human, UniProt P48546 22-466)
T1 sequence (looked up): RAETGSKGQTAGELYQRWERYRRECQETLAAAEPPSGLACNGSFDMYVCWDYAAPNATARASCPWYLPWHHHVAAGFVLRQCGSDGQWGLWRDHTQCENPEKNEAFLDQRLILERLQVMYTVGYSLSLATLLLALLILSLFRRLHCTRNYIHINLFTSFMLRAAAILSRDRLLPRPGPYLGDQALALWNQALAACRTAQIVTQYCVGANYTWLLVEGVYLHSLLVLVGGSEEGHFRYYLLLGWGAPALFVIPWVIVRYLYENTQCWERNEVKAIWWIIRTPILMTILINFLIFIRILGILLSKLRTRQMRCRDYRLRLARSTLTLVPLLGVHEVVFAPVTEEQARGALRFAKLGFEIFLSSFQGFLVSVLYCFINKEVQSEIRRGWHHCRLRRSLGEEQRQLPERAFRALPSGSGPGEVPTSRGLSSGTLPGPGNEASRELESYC

B1: Example 126 (peptide)
peptide: Y[Aib]EGT[αMeF]TSDYSIXLDKK([AEEA-AEEA-γGlu-C20 diacid])AQ[Aib]AFIEYLIEAGPSSGAPPPS-NH2
modifications: not fully specified (residue 13); printed as Y-Aib-EGT-αMeF-TSDYSI-αMeF-LDKK((2-[2-(2-Amino-ethoxy)-ethoxy]-acetyl)2-(γ-Glu)-CO-(CH2)18-CO2H)AQ-Aib-AFIEYLIEAGPSSGAPPPS-NH2
B2: Example 120 (peptide)
peptide: Y[Aib][cTA]GT[αMeF]TSDYSIXLDEK([AEEA-AEEA-γGlu-C20 diacid])AQ[Aib]AFIEYLIEGGPSSGAPPPS-NH2
modifications: not fully specified (residue 13); printed as Y-Aib-cTA-GT-αMeF-TSDYSI-αMeF-LDEK((2-[2-(2-Amino-ethoxy)-ethoxy]-acetyl)2-(γ-Glu)-CO-(CH2)18-CO2H)AQ-Aib-AFIEYLIEGGPSSGAPPPS-NH2
B3: Example 124 (peptide)
peptide: Y[Aib]EGT[αMeF]TSDYSIXLDEK([AEEA-AEEA-γGlu-C20 diacid])AQ[Aib]EFIEYLIEGGPSSG-NH2
modifications: not fully specified (residue 13); printed as Y-Aib-EGT-αMeF-TSDYSI-αMeF-LDEK((2-[2-(2-Amino-ethoxy)-ethoxy]-acetyl)2-(γ-Glu)-CO-(CH2)18-CO2H)AQ-Aib-EFIEYLIEGGPSSG-NH2
B4: Example 226 (peptide)
peptide: YXEGTXTSDYSILLDEKAQXEFIXYLIEGGPSSGAPPPS
modifications: Y-Aib-EGT-αMeF(2F)-TSDYSILLDEK((2-[2-(2-Amino-ethoxy)-ethoxy]-acetyl)2-(γ-Glu)-CO-(CH2)18-CO2H)AQ-Aib-EFI-(D-Glu)-YLIEGGPSSGAPPPS-NH2
B5: Example 225 (peptide)
peptide: B4 peptide with L13X
modifications: Y-Aib-EGT-αMeF-TSDYSI-Aib-LDEK((2-[2-(2-Amino-ethoxy)-ethoxy]-acetyl)2-(γ-Glu)-CO-(CH2)18-CO2H)AQ-Aib-EFI-(D-Glu)-YLIEGGPSSGAPPPS-NH2
B6: Example 127 (peptide)
peptide: B4 peptide with Y10I, E16K, E21A, X24E
modifications: Y-Aib-EGT-αMeF-TSDISILLDKK((2-[2-(2-Amino-ethoxy)-ethoxy]-acetyl)2-(γ-Glu)-CO-(CH2)18-CO2H)AQ-Aib-AFIEYLIEGGPSSGAPPPS-NH2
B7: Example 123 (peptide)
peptide: Y[Aib]EGT[αMeF]TSDYSIXLDKK([AEEA-AEEA-γGlu-C20 diacid])AQ[Aib]EFIEYLIEGGPSSG-NH2
modifications: not fully specified (residue 13); printed as Y-Aib-EGT-αMeF-TSDYSI-αMeF-LDKK((2-[2-(2-Amino-ethoxy)-ethoxy]-acetyl)2-(γ-Glu)-CO-(CH2)18-CO2H)AQ-Aib-EFIEYLIEGGPSSG-NH2
B8: Example 138 (peptide)
peptide: Y[Aib]EGT[αMeF]TSDYSIXLDKK([AEEA-AEEA-γGlu-C20 diacid])AQ[Aib]SFIEYLIEGGPSSGAPPPS-NH2
modifications: not fully specified (residue 13); printed as Y-Aib-EGT-αMeF-TSDYSI-αMeF-LDKK((2-[2-(2-Amino-ethoxy)-ethoxy]-acetyl)2-(γ-Glu)-CO-(CH2)18-CO2H)AQ-Aib-SFIEYLIEGGPSSGAPPPS-NH2
B9: Example 186 (peptide)
peptide: B4 peptide with Y10X, L13X
modifications: Y-Aib-EGT-αMeF(2F)-TSD-αMeY-SI-αMeF-LDEK((2-[2-(2-Amino-ethoxy)-ethoxy]-acetyl)2-(γ-Glu)-CO-(CH2)18-CO2H)AQ-Aib-EFI-(D-Glu)-YLIEGGPSSGAPPPS-NH2
B10: Example 318 (peptide)
peptide: Y[Aib]EGTFTSDYSILLDKK([AEEA-AEEA-γGlu-C20 diacid])AQ[Aib]EFIEYLIAGGPSSG-NH2
modifications: N-terminus assumed
SMILES: CC[C@H](C)[C@H](NC(=O)[C@H](CC(C)C)NC(=O)[C@H](Cc1ccc(O)cc1)NC(=O)[C@H](CCC(=O)O)NC(=O)[C@@H](NC(=O)[C@H](Cc1ccccc1)NC(=O)[C@H](CCC(=O)O)NC(=O)C(C)(C)NC(=O)[C@H](CCC(N)=O)NC(=O)[C@H](C)NC(=O)[C@H](CCCCNC(=O)COCCOCCNC(=O)COCCOCCNC(=O)CC[C@H](NC(=O)CCCCCCCCCCCCCCCCCCC(=O)O)C(=O)O)NC(=O)[C@H](CCCCN)NC(=O)[C@H](CC(=O)O)NC(=O)[C@H](CC(C)C)NC(=O)[C@H](CC(C)C)NC(=O)[C@@H](NC(=O)[C@H](CO)NC(=O)[C@H](Cc1ccc(O)cc1)NC(=O)[C@H](CC(=O)O)NC(=O)[C@H](CO)NC(=O)[C@@H](NC(=O)[C@H](Cc1ccccc1)NC(=O)[C@@H](NC(=O)CNC(=O)[C@H](CCC(=O)O)NC(=O)C(C)(C)NC(=O)[C@@H](N)Cc1ccc(O)cc1)[C@@H](C)O)[C@@H](C)O)[C@@H](C)CC)[C@@H](C)CC)C(=O)N[C@@H](C)C(=O)NCC(=O)NCC(=O)N1CCC[C@H]1C(=O)N[C@@H](CO)C(=O)N[C@@H](CO)C(=O)NCC(N)=O
B11: Example 304 (peptide)
peptide: YXEGTFTSDYSIXLDKKAQXEFIEYLIEGGPSSG
modifications: Aib2, αMeL13, K17 conjugated to (2-[2-(2-Amino-ethoxy)-ethoxy]-acetyl)2-(γ-Glu)-CO-(CH2)16-CO2H, Aib20, C-terminal amide (NH2)
B12: Example 306 (peptide)
peptide: B11 peptide with E28A
modifications: Aib2, αMeL13, K17 conjugated to (2-[2-(2-Amino-ethoxy)-ethoxy]-acetyl)2-(γ-Glu)-CO-(CH2)16-CO2H, Aib20, C-terminal amide (NH2)
B13: Example 317 (peptide)
peptide: Y[Aib]EGTFTSDYSILLDKK([AEEA-AEEA-γGlu-C20 diacid])AQ[Aib]AFIEYLIAGGPSSG-NH2
modifications: N-terminus assumed
SMILES: CC[C@H](C)[C@H](NC(=O)[C@H](CC(C)C)NC(=O)[C@H](Cc1ccc(O)cc1)NC(=O)[C@H](CCC(=O)O)NC(=O)[C@@H](NC(=O)[C@H](Cc1ccccc1)NC(=O)[C@H](C)NC(=O)C(C)(C)NC(=O)[C@H](CCC(N)=O)NC(=O)[C@H](C)NC(=O)[C@H](CCCCNC(=O)COCCOCCNC(=O)COCCOCCNC(=O)CC[C@H](NC(=O)CCCCCCCCCCCCCCCCCCC(=O)O)C(=O)O)NC(=O)[C@H](CCCCN)NC(=O)[C@H](CC(=O)O)NC(=O)[C@H](CC(C)C)NC(=O)[C@H](CC(C)C)NC(=O)[C@@H](NC(=O)[C@H](CO)NC(=O)[C@H](Cc1ccc(O)cc1)NC(=O)[C@H](CC(=O)O)NC(=O)[C@H](CO)NC(=O)[C@@H](NC(=O)[C@H](Cc1ccccc1)NC(=O)[C@@H](NC(=O)CNC(=O)[C@H](CCC(=O)O)NC(=O)C(C)(C)NC(=O)[C@@H](N)Cc1ccc(O)cc1)[C@@H](C)O)[C@@H](C)O)[C@@H](C)CC)[C@@H](C)CC)C(=O)N[C@@H](C)C(=O)NCC(=O)NCC(=O)N1CCC[C@H]1C(=O)N[C@@H](CO)C(=O)N[C@@H](CO)C(=O)NCC(N)=O
B14: Example 323 (peptide)
peptide: B4 peptide with X6F, L13X, E21A, X24E
modifications: Aib2, αMeL13, K17 conjugated to (2-[2-(2-Amino-ethoxy)-ethoxy]-acetyl)2-(γ-Glu)-CO-(CH2)16-CO2H, Aib20, C-terminal amide (NH2)
B15: Example 328 (peptide)
peptide: FXEGTFTSDYSIXLDKKAQXAFIEYLIEAGPSSGAPPPS
modifications: Aib2, αMeL13, K17 conjugated to (2-[2-(2-Amino-ethoxy)-ethoxy]-acetyl)2-(γ-Glu)-CO-(CH2)16-CO2H, Aib20, C-terminal amide (NH2)
B16: Example 325 (peptide)
peptide: B4 peptide with E16K, E21A, X24E
modifications: Aib2, αMeF(2F)6, K17 conjugated to (2-[2-(2-Amino-ethoxy)-ethoxy]-acetyl)2-(γ-Glu)-CO-(CH2)18-CO2H, Aib20, C-terminal amide (NH2)
B17: Example 324 (peptide)
peptide: B15 peptide with F1Y, E28A, A29G
modifications: Aib2, αMeL13, K17 conjugated to (2-[2-(2-Amino-ethoxy)-ethoxy]-acetyl)2-(γ-Glu)-CO-(CH2)18-CO2H (printed "(CH2)1s"), Aib20, C-terminal amide (NH2)
B18: Example 326 (peptide)
peptide: F[Aib]EGTFTSDYSILLDKK([AEEA-AEEA-γGlu-C20 diacid])AQ[Aib]AFIEYLIEGGPSSGAPPPS-NH2
B19: Example 319 (peptide)
peptide: Y[Aib]EGTFTSDYSILLDKK([AEEA-AEEA-γGlu-C20 diacid])AQ[Aib]EFIEYLIAGGPSSGAPPPS-NH2
modifications: N-terminus assumed
SMILES: CC[C@H](C)[C@H](NC(=O)[C@H](CC(C)C)NC(=O)[C@H](Cc1ccc(O)cc1)NC(=O)[C@H](CCC(=O)O)NC(=O)[C@@H](NC(=O)[C@H](Cc1ccccc1)NC(=O)[C@H](CCC(=O)O)NC(=O)C(C)(C)NC(=O)[C@H](CCC(N)=O)NC(=O)[C@H](C)NC(=O)[C@H](CCCCNC(=O)COCCOCCNC(=O)COCCOCCNC(=O)CC[C@H](NC(=O)CCCCCCCCCCCCCCCCCCC(=O)O)C(=O)O)NC(=O)[C@H](CCCCN)NC(=O)[C@H](CC(=O)O)NC(=O)[C@H](CC(C)C)NC(=O)[C@H](CC(C)C)NC(=O)[C@@H](NC(=O)[C@H](CO)NC(=O)[C@H](Cc1ccc(O)cc1)NC(=O)[C@H](CC(=O)O)NC(=O)[C@H](CO)NC(=O)[C@@H](NC(=O)[C@H](Cc1ccccc1)NC(=O)[C@@H](NC(=O)CNC(=O)[C@H](CCC(=O)O)NC(=O)C(C)(C)NC(=O)[C@@H](N)Cc1ccc(O)cc1)[C@@H](C)O)[C@@H](C)O)[C@@H](C)CC)[C@@H](C)CC)C(=O)N[C@@H](C)C(=O)NCC(=O)NCC(=O)N1CCC[C@H]1C(=O)N[C@@H](CO)C(=O)N[C@@H](CO)C(=O)NCC(=O)N[C@@H](C)C(=O)N1CCC[C@H]1C(=O)N1CCC[C@H]1C(=O)N1CCC[C@H]1C(=O)N[C@@H](CO)C(N)=O

target: T1, human gastric inhibitory peptide …; assay: cell-based or functional assay

| Binder | hGIPR cAMP EC50 ratio | hGIPR cAMP Rel EC50 [nM] |
| --- | --- | --- |
| B1 | 2.53 | 0.0685 |
| B2 | 1.67 | 0.122 |
| B3 | 2.18 | 0.0762 |
| B4 |  | 0.0461 |
| B5 |  | 0.101 |
| B6 | 0.917 | 0.158 |
| B7 | 4.04 | 0.0423 |
| B8 |  | 0.0581 |

target: human GLP-1 receptor (GLP-1R) (human, UniProt P43220 24-463); assay: cell-based or functional assay

| Binder | hGLP1R cAMP EC50 ratio | hGLP1R cAMP Rel EC50 [nM] |
| --- | --- | --- |
| B1 | 0.869 | 0.0715 |
| B2 | 0.319 | 0.201 |
| B3 | 1.29 | 0.0475 |
| B9 | 0.572 | 0.0939 |
| B6 | 0.443 | 0.145 |
| B7 | 1.58 | 0.0344 |

target: human GLP-1 receptor (human, UniProt P43220 24-463); assay: cell-based or functional assay

| Binder | hGLP1R GTPgS % Top [%] | hGLP1R GTPgS Rel EC50 [nM] |
| --- | --- | --- |
| B10 | 58.4 | 0.415 |
| B11 | 77.1 | 0.561 |
| B12 | 76.1 | 0.378 |
| B13 | 53.7 | 0.536 |
| B14 | 81.9 | 0.79 |
| B15 | 66.3 | 0.481 |
| B16 | 97.9 | 0.414 |
| B17 | 84.5 | 0.475 |
| B18 | 61.6 | 0.663 |
| B19 | 65.7 | 0.657 |
